Experimental data from patent publication US20220098307A1 (WUHAN YZY BIOPHARMA, published 2022).

How the values were obtained:
human CEA = target: T1, human CEA (human, UniProt P06731 35-685); assay: flow cytometry, human tumor cells (CEA+)
T1 sequence: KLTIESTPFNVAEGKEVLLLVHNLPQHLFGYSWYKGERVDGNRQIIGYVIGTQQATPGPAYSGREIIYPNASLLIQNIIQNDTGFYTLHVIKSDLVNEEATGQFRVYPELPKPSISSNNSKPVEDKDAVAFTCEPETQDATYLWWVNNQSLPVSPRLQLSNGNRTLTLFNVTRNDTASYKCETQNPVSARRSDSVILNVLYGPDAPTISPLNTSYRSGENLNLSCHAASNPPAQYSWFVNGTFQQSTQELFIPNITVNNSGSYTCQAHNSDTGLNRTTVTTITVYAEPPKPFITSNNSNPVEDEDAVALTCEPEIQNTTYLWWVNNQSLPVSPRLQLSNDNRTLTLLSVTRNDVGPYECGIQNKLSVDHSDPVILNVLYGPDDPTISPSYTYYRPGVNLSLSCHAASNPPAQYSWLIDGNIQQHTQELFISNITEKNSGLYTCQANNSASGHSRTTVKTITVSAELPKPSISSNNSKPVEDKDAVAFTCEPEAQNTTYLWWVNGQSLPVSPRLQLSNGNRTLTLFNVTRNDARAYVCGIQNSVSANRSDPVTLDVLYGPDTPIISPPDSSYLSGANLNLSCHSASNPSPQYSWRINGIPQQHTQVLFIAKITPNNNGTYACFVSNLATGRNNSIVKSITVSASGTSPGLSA
Excerpt: (§1) 1) Cell preparation: T cells isolated from CD3-positive human whole blood were used for a CD3 end affinity detection of multifunctional antibody molecule; positive tumor cells of corresponding antigen were used for detecting affinity of tumor antigen; for example, CD38-positive MM. 1S cells (purchased from the Cell Resource Center of Shanghai Institutes for Biological Sciences, Chinese Academy of Sciences) or RPMI 8226 cells (purchased from the Cell Resource Center of Shanghai Institutes for Biological Sciences, Chinese Academy of Sciences) were used for CD38 antigen detection, and PD-L1 positive H358 cells (purchased from the Cell Resource Center of Shanghai Institutes for Biological Sciences, Chinese Academy of Sciences) were used for PD-L1 antigen detection, and so on. The cells were resuspended with 1% FBS-PBS, adjusted to a density of 4×10⁶/ml, and 50 μl of cells were taken from each well, and then plated at 2×10⁵ per well. Cell plating was operated on ice
(§2) 2) Addition of the antibody: according to the experimental design, the antibody was diluted gradually, and dilution of antibody was operated on ice. For example, the initial concentration of antibody for dilution was 3000 nM, and the antibody was diluted by 3 times with 11 concentration gradients. The diluted antibody was added to a cell well at 50 μl per well, mixed well, and shaked and incubated at 4° C. 1100 rpm/min for 2 h; after washing, the cells were resuspend in 1% FBS-PBS, and a diluted secondary antibody PE anti-human IgG FC (Biolegend, 409304) was added with a final concentration of 8 ug/ml and a volume of 50 μl/well. At the same time, a well only added with cells and secondary antibody was set as a control, the components were mixed well, and incubated under shaking at 1100 rpm/min at 4° C. for 1 h;
(§3) 5) Data analysis: the data was analyzed by a flow analysis software FlowJo 7.6 thereby obtaining an average fluorescence intensity of the specific antibody concentration, plotted by a Graphpad Prism 5 with the antibody concentration (nM) as an abscissa and the average fluorescence intensity as an ordinate; the EC50 value was calculated by the method of One site—Specific binding, and the EC50 value indicated the cell affinity of the antibody to the corresponding target antigen.

Human CD3ε = target: T2, Human CD3ε (human, UniProt P07766 23-126); assay: flow cytometry, human T cells
T2 construct: CD3 on T cells isolated from human whole blood
Excerpt: as §1, §2, §3

B1: CEA-M3-G2 (bispecific antibody)
chain 1: QVQLVQSGSELKKPGASVKVSCKASGYTFTVFGMNWVRQAPGQGLEWMGWINTKTGEATYVEEFKGRFVFSLDTSVSTAYLQISSLKADDTAVYYCARWDFYDYVEAMDYWGQGTTVTVSSASTKGPSVFPLAPSSKSTSGGTAALGCLVKDYFPEPVTVSWNSGALTSGVHTFPAVLQSSGLYSLSSVVTVPSSSLGTQTYICNVNHKPSNTKVDKKVEPKSCGGGGSGGGGSQVQLVESGGGVVQPGRSLRLSCAASGFTFSTYAMNWVRQAPGKGLEWVARIRSKYNNYATYYADSVKDRFTISRDDSKNTLYLQMNSLRAEDTAVYYCARHGNFGNSYVSWFAYWGQGTLVTVSSASVAAPSVFIFPPSDEQLKSGTASVVCLLNNFYPREAKVQWKVDNALQSGNSQESVTEQDSKDSTYSLSSTLTLSKADYEKHKVYACEVTHQGLSSPVTKSFNRGECDKTHTCPPCPAPPVAGPSVFLFPPKPKDTLMISRTPEVTCVVVDVSHEDPEVQFNWYVDGVEVHNAKTKPREEQFNSTFRVVSVLTVVHQDWLNGKEYKCKVSNKGLPAPIEKTISKTKGQPREPQVYTLPPCRDELTKNQVSLWCLVKGFYPSDIAVEWESNGQPENNYKTTPPVLDSDGSFFLYSKLTVDKSRWQQGNVFSCSVMHEALHNHYTQKSLSLSPGK
chain 2: QTVVTQEPSLTVSPGGTVTLTCRSSTGAVTTSNYANWVQQKPGQAPRGLIGGTNKRAPGVPARFSGSLLGGKAALTLSGVQPEDEAEYYCALWYSNLWVFGGGTKVEIKSSASTKGPSVFPLAPSSKSTSGGTAALGCLVKDYFPEPVTVSWNSGALTSGVHTFPAVLQSSGLYSLSSVVTVPSSSLGTQTYICNVNHKPSNTKVDKKVEPKSC
heavy: QVQLVQSGSELKKPGASVKVSCKASGYTFTVFGMNWVRQAPGQGLEWMGWINTKTGEATYVEEFKGRFVFSLDTSVSTAYLQISSLKADDTAVYYCARWDFYDYVEAMDYWGQGTTVTVSSASTKGPSVFPLAPSSKSTSGGTAALGCLVKDYFPEPVTVSWNSGALTSGVHTFPAVLQSSGLYSLSSVVTVPSSSLGTQTYICNVNHKPSNTKVDKKVEPKSCDKTHTCPPCPAPPVAGPSVFLFPPKPKDTLMISRTPEVTCVVVDVSHEDPEVQFNWYVDGVEVHNAKTKPREEQFNSTFRVVSVLTVVHQDWLNGKEYKCKVSNKGLPAPIEKTISKTKGQPREPQVCTLPPSRDELTKNQVSLSCAVKGFYPSDIAVEWESNGQPENNYKTTPPVLDSDGSFFLVSKLTVDKSRWQQGNVFSCSVMHEALHNRFTQKSLSLSPGK
light: DIQMTQSPSSLSASVGDRVTITCKASQNVGTNVAWYQQKPGKAPKLLIYSASYRYSGVPSRFSGSGSGTDFTFTISSLQPEDIATYYCHQYYTYPLFTFGQGTKVEIKRTVAAPSVFIFPPSDEQLKSGTASVVCLLNNFYPREAKVQWKVDNALQSGNSQESVTEQDSKDSTYSLSSTLTLSKADYEKHKVYACEVTHQGLSSPVTKSFNRGEC
notes: structure 3; CEA x CD3; CH2 G2CH2
EC50 (human CEA): 36.3 nM
EC50 (Human CD3ε): 638 nM
